# According to patent US20200306385A1 (ADC THERAPEUTICS S A, published 2020):
# Molecular target: CD22 (human, UniProt P20273 20-847)
# Test: cell-based or functional assay
binder,measurement,value
"Epratuzumab-A (antibody, V domains shown, PBD dimer drug-linker A (SG3246) conjugated to thiols of TCEP-reduced cysteine disulfide bridges; DAR 2.03; which cysteines are modified is not stated) VH: QVQLVQSGAEVKKPGSSVKVSCKASGYTFTSYWLHWVRQAPGQGLEWIGYINPRNDYTEYNQNFKDKATITADESTNTAYMELSSLRSEDTAFYFCARRDITTFYWGQG VL: DIQLTQSPSSLSASVGDRVTMSCKSSQSVLYSANHKNYLAWYQQKPGKAPKLLIYWASTRESGVPSRFSGSGSGTDFTFTISSLQPEDIATYYCHQYLSSWTFGQG","EC50 (µg/mL), in vitro cytotoxicity (cell survival, Alamar Blue, 4 days) on CD22+ve Daudi cells",0.0136 µg/mL
same,"EC50 (µg/mL), in vitro cytotoxicity (cell survival, Alamar Blue, 4 days) on CD22+ve Ramos cells",0.0332 µg/mL
same,"EC50 (µg/mL), in vitro cytotoxicity (cell survival, Alamar Blue, 4 days) on CD22+ve WSU-DLCL2 cells",0.0243 µg/mL
